First the molecules themselves.
B1: Speckle-type POZ protein (Homo sapiens), O43791 (parent)
chain: MSRVPSPPPPAEMSSGPVAESWCYTQIKVVKFSYMWTINNFSFCREEMGEVIKSSTFSSGANDKLKWCLRVNPKGLDEESKDYLSLYLLLVSCPKSEVRAKFKFSILNAKGEETKAMESQRAYRFVQGKDWGFKKFIRRDFLLDEANGLLPDDKLTLFCEVSVVQDSVNISGQNTMNMVKVPECRLADELGGLWENSRFTDCCLCVAGQEFQAHKAILAARSPVFSAMFEHEMEESKKNRVEINDVEPEVFKEMMCFIYTGKAPNLDKMADDLLAAADKYALERLKVMCEDALCSNLSVENAAEILILADLHSADQLKTQAVDFINYHASDVLETSGWKSMVVSHPHLVAEAYRSLASAQCPFLGPPRKRLKQS

In one test the parent is B1. To be noted: with tshr_human TSHR.
MSRVPSPPPPAEMSSGPVAESWCYTQIKVVKFSYMWTINNFSFCREEMGEVIKSSTFSSGANDKLKWCLRVNPKGLDEESKDYLSLYLLLVSCPKSEVRAKFKFSILNAKGEETKAMESQRAYRFVQGKDWGVKKFIRRDFLLDEANGLLPDDKLTLFCEVSVVQDSVNISGQNTMNMVKVPECRLADELGGLWENSRFTDCCLCVAGQEFQAHKAILAARSPVFSAMFEHEMEESKKNRVEINDVEPEVFKEMMCFIYTGKAPNLDKMADDLLAAADKYALERLKVMCEDALCSNLSVENAAEILILADLHSADQLKTQAVDFINYHASDVLETSGWKSMVVSHPHLVAEAYRSLASAQCPFLGPPRKRLKQS [F133V]: the “effect of a mutation on the interaction” value is given as “with no effect”.

A further test covers variants of B1. To be noted: with vegfa_human VEGFA.
For the variant MSRVPSPPPPAEMSSGPVAESWCYTQIKVVKFSYMWTINNFSFCREEMGEVIKSSTFSSGANDKLKWCLRVNPKGLDEESKDYLSLYLLLVSCPKSEVRAKFKFSILNAKGEETKAMESQRAYRFVQGKDWGVKKFIRRDFLLDEANGLLPDDKLTLFCEVSVVQDSVNISGQNTMNMVKVPECRLADELGGLWENSRFTDCCLCVAGQEFQAHKAILAARSPVFSAMFEHEMEESKKNRVEINDVEPEVFKEMMCFIYTGKAPNLDKMADDLLAAADKYALERLKVMCEDALCSNLSVENAAEILILADLHSADQLKTQAVDFINYHASDVLETSGWKSMVVSHPHLVAEAYRSLASAQCPFLGPPRKRLKQS [F133V], the “effect of a mutation on the interaction” value is recorded as “with no effect”.

A further test covers variants of B1. To be noted: with vhl_human VHL.
MSRVPSPPPPAEMSSGPVAESWCYTQIKVVKFSYMWTINNFSFCREEMGEVIKSSTFSSGANDKLKWCLRVNPKGLDEESKDYLSLYLLLVSCPKSEVRAKFKFSILNAKGEETKAMESQRAYRFVQGKDWGVKKFIRRDFLLDEANGLLPDDKLTLFCEVSVVQDSVNISGQNTMNMVKVPECRLADELGGLWENSRFTDCCLCVAGQEFQAHKAILAARSPVFSAMFEHEMEESKKNRVEINDVEPEVFKEMMCFIYTGKAPNLDKMADDLLAAADKYALERLKVMCEDALCSNLSVENAAEILILADLHSADQLKTQAVDFINYHASDVLETSGWKSMVVSHPHLVAEAYRSLASAQCPFLGPPRKRLKQS [F133V]: the “effect of a mutation on the interaction” value is given as “with no effect”.

Variants of B1 are the subject of the next test. The settings on record: with wee1_human WEE1, P30291.
Chain of wee1_human WEE1, P30291 (P30291 whole entry, looked up): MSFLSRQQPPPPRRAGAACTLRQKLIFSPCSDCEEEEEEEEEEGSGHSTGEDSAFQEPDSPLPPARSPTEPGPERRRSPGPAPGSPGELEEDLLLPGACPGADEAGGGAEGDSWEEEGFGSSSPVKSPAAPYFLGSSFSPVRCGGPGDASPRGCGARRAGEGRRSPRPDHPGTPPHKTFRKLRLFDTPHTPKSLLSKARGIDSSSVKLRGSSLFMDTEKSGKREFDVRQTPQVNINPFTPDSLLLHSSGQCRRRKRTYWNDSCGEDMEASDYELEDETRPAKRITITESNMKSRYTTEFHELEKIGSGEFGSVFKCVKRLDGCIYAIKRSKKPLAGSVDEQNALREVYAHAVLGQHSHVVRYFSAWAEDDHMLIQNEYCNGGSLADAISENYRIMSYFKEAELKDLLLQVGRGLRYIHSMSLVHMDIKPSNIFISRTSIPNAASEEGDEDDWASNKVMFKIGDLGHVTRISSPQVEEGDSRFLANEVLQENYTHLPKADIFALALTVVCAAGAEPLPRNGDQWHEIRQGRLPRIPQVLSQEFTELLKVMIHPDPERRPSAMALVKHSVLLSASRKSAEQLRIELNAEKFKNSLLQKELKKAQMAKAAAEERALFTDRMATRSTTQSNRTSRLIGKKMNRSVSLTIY
For the variant MSRVPSPPPPAEMSSGPVAESWCYTQIKVVKFSYMWTINNFSFCREEMGEVIKSSTFSSGANDKLKWCLRVNPKGLDEESKDYLSLYLLLVSCPKSEVRAKFKFSILNAKGEETKAMESQRAYRFVQGKDWGVKKFIRRDFLLDEANGLLPDDKLTLFCEVSVVQDSVNISGQNTMNMVKVPECRLADELGGLWENSRFTDCCLCVAGQEFQAHKAILAARSPVFSAMFEHEMEESKKNRVEINDVEPEVFKEMMCFIYTGKAPNLDKMADDLLAAADKYALERLKVMCEDALCSNLSVENAAEILILADLHSADQLKTQAVDFINYHASDVLETSGWKSMVVSHPHLVAEAYRSLASAQCPFLGPPRKRLKQS [F133V], the “effect of a mutation on the interaction” value is reported as “with no effect”.

The variants in another test derive from B1. The settings on record: with wwtr1_human WWTR1, Q9GZV5.
Chain of wwtr1_human WWTR1, Q9GZV5 (Q9GZV5 whole entry): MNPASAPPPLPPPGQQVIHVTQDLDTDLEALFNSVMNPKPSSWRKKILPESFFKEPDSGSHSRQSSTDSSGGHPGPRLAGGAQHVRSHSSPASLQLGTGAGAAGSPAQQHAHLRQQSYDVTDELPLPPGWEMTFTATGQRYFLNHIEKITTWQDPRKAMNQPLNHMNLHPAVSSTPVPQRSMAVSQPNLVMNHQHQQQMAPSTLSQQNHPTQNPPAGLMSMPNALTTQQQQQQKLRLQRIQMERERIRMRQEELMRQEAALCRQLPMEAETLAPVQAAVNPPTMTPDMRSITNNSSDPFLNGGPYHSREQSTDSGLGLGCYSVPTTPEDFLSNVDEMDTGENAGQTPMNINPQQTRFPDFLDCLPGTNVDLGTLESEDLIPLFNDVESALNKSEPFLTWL
For the variant MSRVPSPPPPAEMSSGPVAESWCYTQIKVVKFSYMWTINNFSFCREEMGEVIKSSTFSSGANDKLKWCLRVNPKGLDEESKDYLSLYLLLVSCPKSEVRAKFKFSILNAKGEETKAMESQRAYRFVQGKDWGVKKFIRRDFLLDEANGLLPDDKLTLFCEVSVVQDSVNISGQNTMNMVKVPECRLADELGGLWENSRFTDCCLCVAGQEFQAHKAILAARSPVFSAMFEHEMEESKKNRVEINDVEPEVFKEMMCFIYTGKAPNLDKMADDLLAAADKYALERLKVMCEDALCSNLSVENAAEILILADLHSADQLKTQAVDFINYHASDVLETSGWKSMVVSHPHLVAEAYRSLASAQCPFLGPPRKRLKQS [F133V], the “effect of a mutation on the interaction” value is reported as “with no effect”.

Another test covers variants of B1. To be noted: with xpo1_human XPO1, O14980.
Chain of xpo1_human XPO1, O14980 (O14980 whole entry): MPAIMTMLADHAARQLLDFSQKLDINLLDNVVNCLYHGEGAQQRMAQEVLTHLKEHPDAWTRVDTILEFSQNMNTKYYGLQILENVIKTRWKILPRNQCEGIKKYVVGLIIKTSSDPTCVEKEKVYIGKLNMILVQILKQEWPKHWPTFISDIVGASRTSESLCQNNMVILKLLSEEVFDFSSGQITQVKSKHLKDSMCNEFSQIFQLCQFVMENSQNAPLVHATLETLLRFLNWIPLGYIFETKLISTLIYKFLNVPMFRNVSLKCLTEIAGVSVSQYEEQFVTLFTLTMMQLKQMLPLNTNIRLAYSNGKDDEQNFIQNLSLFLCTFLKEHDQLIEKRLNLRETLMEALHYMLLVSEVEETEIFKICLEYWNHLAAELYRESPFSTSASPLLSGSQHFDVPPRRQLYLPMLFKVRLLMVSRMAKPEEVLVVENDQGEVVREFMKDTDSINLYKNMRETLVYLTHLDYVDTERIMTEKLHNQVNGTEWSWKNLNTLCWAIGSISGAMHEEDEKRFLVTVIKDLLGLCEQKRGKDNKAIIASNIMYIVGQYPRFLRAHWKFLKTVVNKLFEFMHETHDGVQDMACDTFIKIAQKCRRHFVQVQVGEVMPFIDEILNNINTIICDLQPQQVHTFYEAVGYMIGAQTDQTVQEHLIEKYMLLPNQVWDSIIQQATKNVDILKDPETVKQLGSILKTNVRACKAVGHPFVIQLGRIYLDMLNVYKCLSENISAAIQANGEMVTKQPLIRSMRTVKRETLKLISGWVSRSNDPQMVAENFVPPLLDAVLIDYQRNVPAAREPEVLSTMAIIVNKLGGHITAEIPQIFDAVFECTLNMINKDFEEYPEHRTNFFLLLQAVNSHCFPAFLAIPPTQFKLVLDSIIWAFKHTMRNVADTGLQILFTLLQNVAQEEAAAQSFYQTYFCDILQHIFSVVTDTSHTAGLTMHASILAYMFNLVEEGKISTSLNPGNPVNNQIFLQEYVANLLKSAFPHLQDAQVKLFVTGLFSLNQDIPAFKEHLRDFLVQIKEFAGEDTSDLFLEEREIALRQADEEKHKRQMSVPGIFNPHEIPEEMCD
Take MSRVPSPPPPAEMSSGPVAESWCYTQIKVVKFSYMWTINNFSFCREEMGEVIKSSTFSSGANDKLKWCLRVNPKGLDEESKDYLSLYLLLVSCPKSEVRAKFKFSILNAKGEETKAMESQRAYRFVQGKDWGVKKFIRRDFLLDEANGLLPDDKLTLFCEVSVVQDSVNISGQNTMNMVKVPECRLADELGGLWENSRFTDCCLCVAGQEFQAHKAILAARSPVFSAMFEHEMEESKKNRVEINDVEPEVFKEMMCFIYTGKAPNLDKMADDLLAAADKYALERLKVMCEDALCSNLSVENAAEILILADLHSADQLKTQAVDFINYHASDVLETSGWKSMVVSHPHLVAEAYRSLASAQCPFLGPPRKRLKQS [F133V]: the “effect of a mutation on the interaction” value was “with no effect”.

Variants of B1 are the subject of a further test. To be noted: with cblb_human CBLB.
Turning to MSRVPSPPPPAEMSSGPVAESWCYTQIKVVKFSYMWTINNFSFCREEMGEVIKSSTFSSGANDKLKWCLRVNPKGLDEESKDYLSLYLLLVSCPKSEVRAKFKFSILNAKGEETKAMESQRAYRFVQGKDWGVKKFIRRDFLLDEANGLLPDDKLTLFCEVSVVQDSVNISGQNTMNMVKVPECRLADELGGLWENSRFTDCCLCVAGQEFQAHKAILAARSPVFSAMFEHEMEESKKNRVEINDVEPEVFKEMMCFIYTGKAPNLDKMADDLLAAADKYALERLKVMCEDALCSNLSVENAAEILILADLHSADQLKTQAVDFINYHASDVLETSGWKSMVVSHPHLVAEAYRSLASAQCPFLGPPRKRLKQS [F133V], the “effect of a mutation on the interaction” value is listed as “causing an interaction”.

In a further test the parent is B1. To be noted: with jun_human JUN.
As to MSRVPSPPPPAEMSSGPVAESWCYTQIKVVKFSYMWTINNFSFCREEMGEVIKSSTFSSGANDKLKWCLRVNPKGLDEESKDYLSLYLLLVSCPKSEVRAKFKFSILNAKGEETKAMESQRAYRFVQGKDWGVKKFIRRDFLLDEANGLLPDDKLTLFCEVSVVQDSVNISGQNTMNMVKVPECRLADELGGLWENSRFTDCCLCVAGQEFQAHKAILAARSPVFSAMFEHEMEESKKNRVEINDVEPEVFKEMMCFIYTGKAPNLDKMADDLLAAADKYALERLKVMCEDALCSNLSVENAAEILILADLHSADQLKTQAVDFINYHASDVLETSGWKSMVVSHPHLVAEAYRSLASAQCPFLGPPRKRLKQS [F133V], the “effect of a mutation on the interaction” value was “causing an interaction”.

The next test covers variants of B1. To be noted: with kdm6a_human KDM6A.
Turning to MSRVPSPPPPAEMSSGPVAESWCYTQIKVVKFSYMWTINNFSFCREEMGEVIKSSTFSSGANDKLKWCLRVNPKGLDEESKDYLSLYLLLVSCPKSEVRAKFKFSILNAKGEETKAMESQRAYRFVQGKDWGVKKFIRRDFLLDEANGLLPDDKLTLFCEVSVVQDSVNISGQNTMNMVKVPECRLADELGGLWENSRFTDCCLCVAGQEFQAHKAILAARSPVFSAMFEHEMEESKKNRVEINDVEPEVFKEMMCFIYTGKAPNLDKMADDLLAAADKYALERLKVMCEDALCSNLSVENAAEILILADLHSADQLKTQAVDFINYHASDVLETSGWKSMVVSHPHLVAEAYRSLASAQCPFLGPPRKRLKQS [F133V], the “effect of a mutation on the interaction” value is reported as “causing an interaction”.

In a further test the parent is B1. To be noted: with pax5_human PAX5, Q02548.
Chain of pax5_human PAX5, Q02548 (Q02548 whole entry): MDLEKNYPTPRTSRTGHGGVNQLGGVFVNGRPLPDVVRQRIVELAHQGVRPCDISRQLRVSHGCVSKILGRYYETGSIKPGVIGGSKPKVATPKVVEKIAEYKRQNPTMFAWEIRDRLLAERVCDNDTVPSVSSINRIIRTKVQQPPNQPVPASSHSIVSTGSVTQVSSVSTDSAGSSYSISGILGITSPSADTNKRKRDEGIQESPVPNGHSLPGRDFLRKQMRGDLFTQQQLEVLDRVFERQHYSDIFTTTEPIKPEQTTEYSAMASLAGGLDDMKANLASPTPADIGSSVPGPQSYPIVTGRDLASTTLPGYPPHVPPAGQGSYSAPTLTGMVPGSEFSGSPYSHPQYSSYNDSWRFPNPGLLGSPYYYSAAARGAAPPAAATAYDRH
Regarding MSRVPSPPPPAEMSSGPVAESWCYTQIKVVKFSYMWTINNFSFCREEMGEVIKSSTFSSGANDKLKWCLRVNPKGLDEESKDYLSLYLLLVSCPKSEVRAKFKFSILNAKGEETKAMESQRAYRFVQGKDWGVKKFIRRDFLLDEANGLLPDDKLTLFCEVSVVQDSVNISGQNTMNMVKVPECRLADELGGLWENSRFTDCCLCVAGQEFQAHKAILAARSPVFSAMFEHEMEESKKNRVEINDVEPEVFKEMMCFIYTGKAPNLDKMADDLLAAADKYALERLKVMCEDALCSNLSVENAAEILILADLHSADQLKTQAVDFINYHASDVLETSGWKSMVVSHPHLVAEAYRSLASAQCPFLGPPRKRLKQS [F133V], the “effect of a mutation on the interaction” value was “causing an interaction”.

Variants of B1 are the subject of another test. To be noted: with PIK3C2B.
On to MSRVPSPPPPAEMSSGPVAESWCYTQIKVVKFSYMWTINNFSFCREEMGEVIKSSTFSSGANDKLKWCLRVNPKGLDEESKDYLSLYLLLVSCPKSEVRAKFKFSILNAKGEETKAMESQRAYRFVQGKDWGVKKFIRRDFLLDEANGLLPDDKLTLFCEVSVVQDSVNISGQNTMNMVKVPECRLADELGGLWENSRFTDCCLCVAGQEFQAHKAILAARSPVFSAMFEHEMEESKKNRVEINDVEPEVFKEMMCFIYTGKAPNLDKMADDLLAAADKYALERLKVMCEDALCSNLSVENAAEILILADLHSADQLKTQAVDFINYHASDVLETSGWKSMVVSHPHLVAEAYRSLASAQCPFLGPPRKRLKQS [F133V], for which the “effect of a mutation on the interaction” value is given as “causing an interaction”.

A further test covers variants of B1. To be noted: with e2f5_human E2F5, Q15329.
Chain of e2f5_human E2F5, Q15329 (Q15329 whole entry): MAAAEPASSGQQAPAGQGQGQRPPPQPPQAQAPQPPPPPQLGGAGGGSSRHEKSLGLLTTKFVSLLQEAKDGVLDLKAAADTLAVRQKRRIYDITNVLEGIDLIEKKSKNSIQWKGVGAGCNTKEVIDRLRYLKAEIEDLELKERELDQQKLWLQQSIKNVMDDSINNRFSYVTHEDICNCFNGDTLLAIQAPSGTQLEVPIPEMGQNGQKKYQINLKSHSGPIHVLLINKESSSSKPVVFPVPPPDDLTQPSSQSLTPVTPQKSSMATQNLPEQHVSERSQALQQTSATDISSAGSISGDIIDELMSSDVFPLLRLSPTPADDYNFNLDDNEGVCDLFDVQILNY
As to MSRVPSPPPPAEMSSGPVAESWCYTQIKVVKFSYMWTINNFSFCREEMGEVIKSSTFSSGANDKLKWCLRVNPKGLDEESKDYLSLYLLLVSCPKSEVRAKFKFSILNAKGEETKAMESQRAYRFVQGKDWGVKKFIRRDFLLDEANGLLPDDKLTLFCEVSVVQDSVNISGQNTMNMVKVPECRLADELGGLWENSRFTDCCLCVAGQEFQAHKAILAARSPVFSAMFEHEMEESKKNRVEINDVEPEVFKEMMCFIYTGKAPNLDKMADDLLAAADKYALERLKVMCEDALCSNLSVENAAEILILADLHSADQLKTQAVDFINYHASDVLETSGWKSMVVSHPHLVAEAYRSLASAQCPFLGPPRKRLKQS [F133V], the “effect of a mutation on the interaction” value is “causing an interaction”.

Variants of B1 are the subject of the next test. To be noted: with cul3_human CUL3, Q13618.
Chain of cul3_human CUL3, Q13618 (Q13618 whole entry): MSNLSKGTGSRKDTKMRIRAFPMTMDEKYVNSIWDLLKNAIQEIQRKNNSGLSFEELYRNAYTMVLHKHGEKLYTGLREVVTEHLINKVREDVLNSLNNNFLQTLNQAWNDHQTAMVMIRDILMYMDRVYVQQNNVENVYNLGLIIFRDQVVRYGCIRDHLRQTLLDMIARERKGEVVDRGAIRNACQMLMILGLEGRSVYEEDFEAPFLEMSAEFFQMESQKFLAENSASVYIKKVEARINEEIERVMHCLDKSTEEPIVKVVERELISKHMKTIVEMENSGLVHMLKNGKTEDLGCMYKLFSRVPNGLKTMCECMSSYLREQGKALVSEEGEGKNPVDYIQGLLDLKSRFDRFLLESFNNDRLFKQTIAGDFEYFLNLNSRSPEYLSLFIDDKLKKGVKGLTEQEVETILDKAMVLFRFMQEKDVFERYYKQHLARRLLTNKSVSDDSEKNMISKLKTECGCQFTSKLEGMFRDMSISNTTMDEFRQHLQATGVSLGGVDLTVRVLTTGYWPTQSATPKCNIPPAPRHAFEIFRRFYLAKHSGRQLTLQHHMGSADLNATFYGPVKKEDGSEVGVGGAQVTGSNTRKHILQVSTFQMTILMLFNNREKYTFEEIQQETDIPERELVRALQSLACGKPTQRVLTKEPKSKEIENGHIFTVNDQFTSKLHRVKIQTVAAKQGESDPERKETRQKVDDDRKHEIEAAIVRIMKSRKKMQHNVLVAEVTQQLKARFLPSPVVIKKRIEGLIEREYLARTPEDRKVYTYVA
MSRVPSPPPPAEMSSGPVAESWCYTQIKVVKFSYMWTINNFSFCREEMGEVIKSSTFSSGANDKLKWCLRVNPKGLDEESKDYLSLYLLLVSCPKSEVRAKFKFSILNAKGEETKAMESQRAYRFVQGKDWGVKKFIRRDFLLDEANGLLPDDKLTLFCEVSVVQDSVNISGQNTMNMVKVPECRLADELGGLWENSRFTDCCLCVAGQEFQAHKAILAARSPVFSAMFEHEMEESKKNRVEINDVEPEVFKEMMCFIYTGKAPNLDKMADDLLAAADKYALERLKVMCEDALCSNLSVENAAEILILADLHSADQLKTQAVDFINYHASDVLETSGWKSMVVSHPHLVAEAYRSLASAQCPFLGPPRKRLKQS [F133V]: the “effect of a mutation on the interaction” value is given as “increasing interaction strength”.

The variants in another test derive from B1. The settings on record: with etv1_human ETV1, P50549.
Chain of etv1_human ETV1, P50549 (P50549 whole entry): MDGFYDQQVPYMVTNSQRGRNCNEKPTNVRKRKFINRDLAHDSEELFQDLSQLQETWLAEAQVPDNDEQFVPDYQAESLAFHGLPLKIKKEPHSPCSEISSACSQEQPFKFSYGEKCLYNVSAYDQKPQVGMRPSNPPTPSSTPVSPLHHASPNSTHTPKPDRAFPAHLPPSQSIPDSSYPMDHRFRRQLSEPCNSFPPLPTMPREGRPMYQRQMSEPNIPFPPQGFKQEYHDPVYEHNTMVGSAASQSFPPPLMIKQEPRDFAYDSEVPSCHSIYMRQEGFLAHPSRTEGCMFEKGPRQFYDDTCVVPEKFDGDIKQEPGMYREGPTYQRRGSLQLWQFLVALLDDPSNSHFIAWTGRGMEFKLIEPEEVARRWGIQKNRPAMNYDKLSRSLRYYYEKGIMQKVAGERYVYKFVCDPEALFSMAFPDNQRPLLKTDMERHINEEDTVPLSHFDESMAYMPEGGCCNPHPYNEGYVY
MSRVPSPPPPAEMSSGPVAESWCYTQIKVVKFSYMWTINNFSFCREEMGEVIKSSTFSSGANDKLKWCLRVNPKGLDEESKDYLSLYLLLVSCPKSEVRAKFKFSILNAKGEETKAMESQRAYRFVQGKDWGVKKFIRRDFLLDEANGLLPDDKLTLFCEVSVVQDSVNISGQNTMNMVKVPECRLADELGGLWENSRFTDCCLCVAGQEFQAHKAILAARSPVFSAMFEHEMEESKKNRVEINDVEPEVFKEMMCFIYTGKAPNLDKMADDLLAAADKYALERLKVMCEDALCSNLSVENAAEILILADLHSADQLKTQAVDFINYHASDVLETSGWKSMVVSHPHLVAEAYRSLASAQCPFLGPPRKRLKQS [F133V]: the “effect of a mutation on the interaction” value is given as “decreasing interaction strength”.

Values taken from IntAct's records for PubMed 35512704.
